The results in this text go back to PMC6736635 (Nature structural & molecular biology, 2019).

For the assay, the target named is EZH2 (human, wild type, subunit of reconstituted PRC2 complexes) (human, UniProt Q15910-2 1-751). In words: SEC.

B1: EED (human, wild type, subunit of reconstituted PRC2 complexes) (natural protein)
chain: not shown
For B1, the binding result is “binds”.
